Measured values taken from patent publication US20230183753A1 (INTELLIA THERAPEUTICS, published 2023).

Biological target: WT1 peptide … (VLD peptide) pulsed on OCI-AML3 target cells
Experiment: cell-based or functional assay

Cumulative Fold Change in T cell number after stimulation 1 with OCI-AML3 cells pulsed with 500 nM VLD peptide, EP + AAV engineered T cells: 7.9 fold
Cumulative Fold Change in T cell number after stimulation 1 with OCI-AML3 cells pulsed with 500 nM VLD peptide, LNP + AAV engineered T cells: 7.2 fold
Cumulative Fold Change in T cell number after stimulation 2 with OCI-AML3 cells pulsed with 500 nM VLD peptide, EP + AAV engineered T cells: 19 fold
Cumulative Fold Change in T cell number after stimulation 2 with OCI-AML3 cells pulsed with 500 nM VLD peptide, LNP + AAV engineered T cells: 34.2 fold
Cumulative Fold Change in T cell number after stimulation 3 with OCI-AML3 cells pulsed with 500 nM VLD peptide, EP + AAV engineered T cells: 27.1 fold
Cumulative Fold Change in T cell number after stimulation 3 with OCI-AML3 cells pulsed with 500 nM VLD peptide, LNP + AAV engineered T cells: 120 fold
B1: WT1 targeting transgenic T cell receptor (tgTCR) (TCR, V domains shown)
V domain 1: DAGVIQSPRHEVTEMGQEVTLRCKPISGHDYLFWYRQTMMRGLELLIYFNNNVPIDDSGMPEDRFSAKMPNASFSTLKIQPSEPRDSAVYFCASRKTGGYSNQPQHFGDGTRLSILE
V domain 2: SQQPVQSPQAVILREGEDAVINCSSSKALYSVHWYRQKHGEAPVFLMILLKGGEQKGHEKISASFNEKKQQSSLYLTASQLSYSGTYFCGTAWINDYKLSFGAGTTVTVRA
